B1: WT PD1 (receptor)
chain: MASDSPDRPWNPPTFSPALLVVTEGDNATFTCSFSNTSESFVLNWYRMSPSNQTDKLAAFPEDRSQPGQDARFRVTQLPNGRDFHMSVVRARRNDSGTYLCGAISLAPKAQIKESLRAELRVTERRALEHHHHHH
notes: Soluble monomeric protein made in bacteria with a C-terminal 6xHis tag and detected with anti-His antibody; also called WT PD1 decoy; WT PD-1 decoy
B2: PD1_4XMUT_M70 (with 6xHis) (receptor)
chain: MASDSPDRPWNPPTFSPALLVVTEGDNATFTCSFSNTSESFVLNWYRMSPSNQDDRLAAFPEDRSQPGQDARFRVTQLPNGRDFHMSVVRARRNDSGTYFCGAISLAPKAKIKESLRAELRVTERRALEHHHHHH
B3: K_78R (receptor)
chain: MASDSPDRPWNPPTFSPALLVVTEGDNATFTCSFSNTSESFVLNWYRMSPSNQTDRLAAFPEDRSQPGQDARFRVTQLPNGRDFHMSVVRARRNDSGTYLCGAISLAPKAQIKESLRAELRVTERRALEHHHHHH
notes: PD1 decoy variant, bacterial, C-terminal 6xHis
B4: A132W (receptor)
chain: MASDSPDRPWNPPTFSPALLVVTEGDNATFTCSFSNTSESFVLNWYRMSPSNQTDKLAAFPEDRSQPGQDARFRVTQLPNGRDFHMSVVRARRNDSGTYLCGAISLAPKWQIKESLRAELRVTERRALEHHHHHH
notes: as for B3
B5: PD1_6XDM (with 6xHis) (receptor)
chain: MASDSPDRPWNPPTFSPALLVVTEGDNATFTCSFSNTSESFVLNWYRMSPSNQVDRLAAFPEDRSQPGQDARFRVTQLPNGRDFHMSVVRARRNDSGTYFCGAISLAPKWKIKESLRAELRVTERRALEHHHHHH
notes: Soluble monomeric, bacterial production
B6: T_76D (receptor)
chain: MASDSPDRPWNPPTFSPALLVVTEGDNATFTCSFSNTSESFVLNWYRMSPSNQDDKLAAFPEDRSQPGQDARFRVTQLPNGRDFHMSVVRARRNDSGTYLCGAISLAPKAQIKESLRAELRVTERRALEHHHHHH
notes: as for B3
B7: 6XC (receptor)
chain: MASDSPDRPWNPPTFSPALLVVTEGDNATFTCSFSNTSESFVLNWYRESPSNQVDRLAAFPEDRSQPGQDARFRVTQLPNGRDFHMSVVRARRNDSGTYICGAISLAPKWKIKESLRAELRVTERRALEHHHHHH
notes: as for B3
B8: Q133K (receptor)
chain: MASDSPDRPWNPPTFSPALLVVTEGDNATFTCSFSNTSESFVLNWYRMSPSNQTDKLAAFPEDRSQPGQDARFRVTQLPNGRDFHMSVVRARRNDSGTYLCGAISLAPKAKIKESLRAELRVTERRALEHHHHHH
notes: as for B3
B9: 6XB (receptor)
chain: MASDSPDRPWNPPTFSPALLVVTEGDNATFTCSFSNTSESFVLNWYRESPSNQDDRLAAFPEDRSQPGQDARFRVTQLPNGRDFHMSVVRARRNDSGTYICGAISLAPKWKIKESLRAELRVTERRALEHHHHHH
notes: as for B3
B10: Core_W (receptor)
chain: MASDSPDRPWNPPTFSPALLVVTEGDNATFTCSFSNTSESFVLNWYRESPSNQDDRLAAFPEDRSQPGQDARFRVTQLPNGRDFHMSVVRARRNDSGTYECGAISLAPKWKIKESLRAELRVTERRALEHHHHHH
notes: as for B3
B11: PD1_4XMUT (with 6xHis) (receptor)
chain: MASDSPDRPWNPPTFSPALLVVTEGDNATFTCSFSNTSESFVLNWYRESPSNQDDRLAAFPEDRSQPGQDARFRVTQLPNGRDFHMSVVRARRNDSGTYFCGAISLAPKAKIKESLRAELRVTERRALEHHHHHH
notes: as for B5
B12: Core A (receptor)
chain: MASDSPDRPWNPPTFSPALLVVTEGDNATFTCSFSNTSESFVLNWYRESPSNQDDRLAAFPEDRSQPGQDARFRVTQLPNGRDFHMSVVRARRNDSGTYECGAISLAPKAKIKESLRAELRVTERRALEHHHHHH
notes: as for B3
B13: B2 4XB (receptor)
chain: MASDSPDRPWNPPTFSPALLVVTEGDNATFTCSFSNTSESFVLNWYRDSPSNQDDRLAAFPEDRSQPGQDARFRVTQLPNGRDFHMSVVRARRNDSGTYLCGAISLAPKAKIKESLRAELRVTERRALEHHHHHH
notes: as for B3
B14: Core L (receptor)
chain: MASDSPDRPWNPPTFSPALLVVTEGDNATFTCSFSNTSESFVLNWYRESPSNQDDRLAAFPEDRSQPGQDARFRVTQLPNGRDFHMSVVRARRNDSGTYECGAISLAPKLKIKESLRAELRVTERRALEHHHHHH
notes: as for B3
B15: X1 4XMut (receptor)
chain: MASDSPDRPWNPPTFSPALLVVTEGDNATFTCSFSNTSESFVLNWYRESPSNQDDRLAAFPEDRSQPGQDARFRVTQLPNGRDFHMSVVRARRNDSGTYLCGAISLAPKAKIKESLRAELRVTERRALEHHHHHH
notes: as for B3
B16: L122E (receptor)
chain: MASDSPDRPWNPPTFSPALLVVTEGDNATFTCSFSNTSESFVLNWYRMSPSNQTDKLAAFPEDRSQPGQDARFRVTQLPNGRDFHMSVVRARRNDSGTYECGAISLAPKAQIKESLRAELRVTERRALEHHHHHH
notes: as for B3
B17: 5XD (receptor)
chain: MASDSPDRPWNPPTFSPALLVVTEGDNATFTCSFSNTSESFVLNWYRESPSNQVDRLAAFPEDRSQPGQDARFRVTQLPNGRDFHMSVVRARRNDSGTYFCGAISLAPKAKIKESLRAELRVTERRALEHHHHHH
notes: as for B3
B18: M70E (receptor)
chain: MASDSPDRPWNPPTFSPALLVVTEGDNATFTCSFSNTSESFVLNWYRESPSNQTDKLAAFPEDRSQPGQDARFRVTQLPNGRDFHMSVVRARRNDSGTYLCGAISLAPKAQIKESLRAELRVTERRALEHHHHHH
notes: as for B3
B19: PD1_6XD (with 6xHis) (receptor)
chain: MASDSPDRPWNPPTFSPALLVVTEGDNATFTCSFSNTSESFVLNWYRESPSNQVDRLAAFPEDRSQPGQDARFRVTQLPNGRDFHMSVVRARRNDSGTYFCGAISLAPKWKIKESLRAELRVTERRALEHHHHHH
notes: as for B5

The target of the assay is T1, human PDL1 protein (human, UniProt Q9NZQ7 19-238, limits assumed).
T1 construct: also called plate-captured PD-L1
T1 sequence (Q9NZQ7 19-238 limits assumed): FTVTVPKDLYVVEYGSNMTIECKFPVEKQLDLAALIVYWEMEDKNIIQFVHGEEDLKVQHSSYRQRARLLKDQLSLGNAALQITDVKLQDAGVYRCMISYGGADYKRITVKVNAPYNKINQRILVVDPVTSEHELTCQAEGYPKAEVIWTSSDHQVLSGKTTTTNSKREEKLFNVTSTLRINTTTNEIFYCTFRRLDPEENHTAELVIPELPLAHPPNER
As to the kind of experiment: titration ELISA, soluble His-tagged PD1 decoy on plate-coated human PD-L1, anti-His detection. For orientation: ELISA stands for enzyme-linked immunosorbent assay.
B1: the “Affinity to PD-L1 (relative to WT PD1)” value was 1 fold relative to WT PD1.
Then B2, with 10 fold relative to WT PD1; and B3, with 1.4 fold relative to WT PD1; and B4, with 3 fold relative to WT PD1.
As for B5, the figure is 7.5 fold relative to WT PD1.
Turning to B6, the “Affinity to PD-L1 (relative to WT PD1)” value was 8.3 fold relative to WT PD1.
Regarding B7, the “Affinity to PD-L1 (relative to WT PD1)” value is 1.1 fold relative to WT PD1.
As for B8, the figure is 3 fold relative to WT PD1; as for B9, 1.3 fold relative to WT PD1; as for B10, 1020 fold relative to WT PD1.
As for B11, the figure is 5 fold relative to WT PD1.
Then B12, with 7.1 fold relative to WT PD1; and B13, with 7.3 fold relative to WT PD1.
For B14, the “Affinity to PD-L1 (relative to WT PD1)” value is 1.7 fold relative to WT PD1.
Then B15, with 5.6 fold relative to WT PD1.
As for B16, the figure is 3 fold relative to WT PD1.
Then B17, with 1.1 fold relative to WT PD1; and B18, with 5.2 fold relative to WT PD1; and B19, with 7.2 fold relative to WT PD1.

For the origin of these results see patent publication US20230414660A1 (LUDWIG INSTITUTE FOR CANCER RESEARCH, published 2023).
